Measured values as given in patent US20240101668A1 (WUGEN, published 2024).

What was measured:
[1] = target: T1, huCD33-G69-Fc recombinant protein (human, UniProt P20138 18-259); test: BLI;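 further: biolayer interferometry: scFvs captured from periplasmic extracts on anti-V5-loaded streptavidin biosensors, antigen association for 2 min, buffer dissociation for 5 min, 1:1 Langmuir fit giving off-rate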
T1 construct: extracellular domain; also called CD33 R69G

[2] = target: T2, huCD33-G69 stably expressed on Jurkat cells (human, UniProt P20138 18-364); test: FACS on cells;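 further: fixed Jurkat lines probed with myc-tagged scFv periplasmic extracts, anti-myc PE flow cytometry, PE MFI fold binned − <2, + 2–10, ++ 10–30, +++ >30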
T2 construct: whole, on cells; >200,000 receptors per cell; also called CD33 Mutant; CD33 R69G

[3] = target: T3, huCD33-R69 stably expressed on Jurkat cells (human, UniProt P20138 18-364); test: FACS on cells;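 further: fixed Jurkat lines probed with myc-tagged scFv periplasmic extracts, anti-myc PE flow cytometry, PE MFI fold binned − <2, + 2–10, ++ 10–30, +++ >30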
T3 construct: whole, on cells; >200,000 receptors per cell; also called CD33 WT; CD33^ARG69
T3 sequence (P20138 18-364): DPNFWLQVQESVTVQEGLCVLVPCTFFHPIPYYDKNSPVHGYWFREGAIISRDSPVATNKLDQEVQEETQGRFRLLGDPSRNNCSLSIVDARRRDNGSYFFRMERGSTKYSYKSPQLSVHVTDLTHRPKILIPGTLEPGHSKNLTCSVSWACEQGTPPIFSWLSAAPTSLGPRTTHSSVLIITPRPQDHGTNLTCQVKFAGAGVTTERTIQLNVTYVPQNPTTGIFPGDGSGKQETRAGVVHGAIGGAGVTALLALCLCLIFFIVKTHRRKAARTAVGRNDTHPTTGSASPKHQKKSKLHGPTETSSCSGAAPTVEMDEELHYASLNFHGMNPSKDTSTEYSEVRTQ

T1 sequence (P20138 18-259 R69G): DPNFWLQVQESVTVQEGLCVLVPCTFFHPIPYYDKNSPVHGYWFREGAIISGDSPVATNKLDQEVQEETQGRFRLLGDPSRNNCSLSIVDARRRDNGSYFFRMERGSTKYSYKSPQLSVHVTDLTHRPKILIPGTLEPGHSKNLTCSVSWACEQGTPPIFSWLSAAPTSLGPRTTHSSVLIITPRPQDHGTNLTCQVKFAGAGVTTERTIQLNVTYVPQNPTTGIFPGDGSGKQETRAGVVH
T2 sequence (P20138 18-364 R69G): as the sequence (P20138 18-364) above, with R52G counted along it

Binder	binding result [1]	FACS geometric mean fold change over Jurkat parental [2] [fold]	FACS geometric mean fold change over Jurkat parental [3] [fold]
Polypeptide No. 120 (scFv, V domains shown, scFv) VH: QVQLVQSGAEVKKPGASVKVSCKASGYTFTTYYMHWVRQAPGQGLEWMGWMNPNSGNTGYAQKFQGRVTMTRDTSTSTVYMELSSLRSEDTAVYYCARGHKVDSGYDPYGMDVWGQGTTVTVSS VL: DIQMTQSPSSLSASVGDRVTITCRASQSIGTYLHWYQQKPGKAPKLLIYAISTLQNGVPSRFSGSGSGTDFTLTISSLQPEDFATYYCQQSYSPPLTFGGGTKVEIKR	binds	> 30	> 30
Polypeptide No. 124 (scFv, V domains shown, scFv) VH: EVQLVESGGGLVKPGGSLRLSCAASGFTFSSYWMHWVRQAPGKGLEWVAVIWYDGSNKYYADSVKGRFTISRDDSKNTLYLQMNSLKTEDTAVYYCVRDGARSGMDVWGQGTTVTVSS VL: EIVMTQSPATLSVSPGERATLSCRASQSVSTYVAWYQQKPGQAPRLLIYGASTRATGIPARFSGSGSGTEFTLTISSLQSEDFAVYYCQQYYDTPLTFGGGTKVEIKR	binds	> 30	> 30
Polypeptide No. 132 (scFv, V domains shown, scFv) VH: EVQLLESGGGLVQPGGSLRLSCAASGFTFNNYGMHWVRQAPGKGLEWVSAISGSGGSTYYADSVKGRFTISRDNSKNTLYLQMNSLRAEDTAVYYCAREYMQQPHGGMDVWGQGTTVTVSS VL: EIVMTQSPATLSVSPGERATLSCRASQSVNSYLAWYQQKPGQAPRLLIYGASTRATGIPARFSGSGSGTEFTLTISSLQSEDFAVYYCQQYGSSPLSFGGGTKVEIKR	binds	10 to 30	2 to 10
Polypeptide No. 118 (scFv, V domains shown, scFv) VH: EVQLVESGGGLVKPGGSLRLSCAASGFTISNAWMSWVRQAPGKGLEWVAHIWNDGSQKYYADSVKGRFTISRDDSKNTLYLQMNSLKTEDTAVYYCARDGALGVGPDDYWGQGTLVTVSS VL: DIVMTQSPLSLPVTPGEPASISCRSSQSLLHSNGYNYLDWYLQKPGQSPQLLIYAASSLQSGVPDRFSGSGSGTDFTLKISRVEAEDVGVYYCMQGLQTPHTFGGGTKVEIKR	binds	2 to 10	10 to 30
Polypeptide No. 116 (scFv, V domains shown, scFv) VH: EVQLLESGGGLVQPGGSLRLSCAASGFTFSNYAMAWVRQAPGKGLEWVSAISGSGGGTYYADSVKGRFTISRDNSKNTLYLQMNSLRAEDTAVYYCAREGGYDPDYYYYGMDVWGQGTTVTVSS VL: DIQMTQSPSSLSASVGDRVTITCRASQSISSYLNWYQQKPGKAPKLLIYATSRLQSGVPSRFSGSGSGTDFTLTISSLQPEDFATYYCQQGFNFPPTFGGGTKVEIKR	binds	> 30	> 30
Polypeptide No. 128 (scFv, V domains shown, scFv) VH: QVQLVQSGAEVKKPGASVKVSCKASGYTFTNYYIHWVRQAPGQGLEWLGWTNPINGDTGSAQKFQGRVTMTRDTSTSTVYMELSSLRSEDTAVYYCAKEGQLAWADYYYYMDVWGKGTTVTVSS VL: DIQMTQSPSSLSASVGDRVTITCRASQGISSALAWYQQKPGKAPKLLIYAASSLQSGVPSRFSGSGSGTDFTLTISSLQPEDFATYYCQQSYSTPLTFGGGTKVEIKR	binds	10 to 30	10 to 30
Polypeptide No. 129 (scFv, V domains shown, scFv) VH: EVQLVESGGGLVKPGGSLRLSCAASGFSLRNYWMHWVRQAPGKGLEWVSGISGSGGSTYYADSVKGRFTISRDDSKNTLYLQMNSLKTEDTAVYYCARDYTGVVDYWGQGTLVTVSS VL: not shown	binds	10 to 30	10 to 30
Polypeptide No. 127 (scFv, V domains shown, scFv) VH: QVQLVQSGAEVKKPGASVKVSCKASGYTFTNHHMHWVRQAPGQGLEWMGMINPSGGSTSYAQKFQGRVTMTRDTSTSTVYMELSSLRSEDTAVYYCARGRPVDIVATYYFDYWGQGTLVTVSS VL: DIQMTQSPSSLSASVGDRVTITCQASQDIRNFLNWYQQKPGKAPKLLIYGASTLHSGVPSRFSGSGSGTDFTLTISSLQPEDFATYYCQQSYSTPLTFGGGTKVEIKR	binds	10 to 30	10 to 30

More lines, now with the values ahead:

binding result [1]	FACS geometric mean fold change over Jurkat parental [2] [fold]	FACS geometric mean fold change over Jurkat parental [3] [fold]	Binder
binds	> 30	10 to 30	Polypeptide No. 122 (scFv, V domains shown, scFv) VH: QVQLVQSGAEVKKPGASVKVSCKASGYTFTDYWLHWVRQAPGQGLEWMGTINPSGGSTSYSHKFQGRVTMTRDTSTSTVYMELSSLRSEDTAVYYCAKEEEGFWSGYAFDYWGQGTLVTVSS VL: not shown
binds	10 to 30	10 to 30	Polypeptide No. 121 (scFv, V domains shown, scFv) VH: QVQLVQSGAEVKKPGASVKVSCKASGDSFTDYYIHWVRQAPGQGLEWMGWMNPNSGNTGYAQQFQGRVTMTRDTSTSTVYMELSSLRSEDTAVYYCARDREYSSSSRYFDLWGRGTLVTVSS VL: DIQMTQSPSSLSASVGDRVTITCRASQNIGNWLAWYQQKPGKAPKLLIYAASTLQSGVPSRFSGSGSGTDFTLTISSLQPEDFATYYCQQSYNSITFGPGTKVDIKR
binds	> 30	> 30	Polypeptide No. 123 (scFv, V domains shown, scFv) VH: EVQLLESGGGLVQPGGSLRLSCAASGFILGNAWMHWVRQAPGKGLEWVASVSGDGSDENYADSVKGRFTISRDNSKNTLYLQMNSLRAEDTAVYYCARDTHDYGDYAPFDYWGQGTLVTVSS VL: DIQMTQSPSSLSASVGDRVTITCQASQDINNYLNWYQQKPGKAPKLLIYAASNLQSGVPSRFSGSGSGTDFTLTISSLQPEDFATYYCQQTYSFPLTFGGGTKVEIKR
binds	10 to 30	> 30	Polypeptide No. 126 (scFv, V domains shown, scFv) VH: EVQLLESGGGLVQPGGSLRLSCAASGFTFTTYDMHWVRQAPGKGLEWVAGINWNSVIIDYADSVKGRFTISRDNSKNTLYLQMNSLRAEDTAVYYCAKDLLYYYDSIGAFDIWGQGTMVTVSS VL: DIQMTQSPSSLSASVGDRVTITCRASQSISTWLAWYQQKPGKAPKLLIYAASSLQSGVPSRFSGSGSGTDFTLTISSLQPEDFATYYCQQSDTLPLTFGGGTKVEIKR
binds	> 30	10 to 30	Polypeptide No. 119 (scFv, V domains shown, scFv) VH: QVQLVQSGAEVKKPGASVKVSCKASGNTLTNDHIHWVRQAPGQGLEWMGWMNPNSGDTGYAQKFQGRVTMTRDTSTSTVYMELSSLRSEDTAVYYCARAGVDTAMVTYYYYGMDVWGQGTTVTVSS VL: not shown
binds	> 30	> 30	Polypeptide No. 125 (scFv, V domains shown, scFv) VH: QVQLVQSGAEVKKPGASVKVSCKASGYSFTTYDIHWVRQAPGQGLEWMGWMNPNSGNTGYAQKFQGRVTMTRDTSTSTVYMELSSLRSEDTAVYYCATDHWVLGGFDYWGQGTLVTVSS VL: DIQMTQSPSSLSASVGDRVTITCQASQDISNYLNWYQQKPGKAPKLLIYAASTLQSGVPSRFSGSGSGTDFTLTISSLQPEDFATYYCQQYSYLPVTFGQGTKLEIKR
binds	2 to 10	2 to 10	Polypeptide No. 133 (scFv, V domains shown, scFv) VH: EVQLLESGGGLVQPGGSLRLSCAASGFTFSSSWMHWVRQAPGKGLEWVSAISSSGDATYYADSVKGRFTISRDNSKNTLYLQMNSLRAEDTAVYYCAKFSDGGAGDSDYWGQGTLVTVSS VL: DIQMTQSPSSLSASVGDRVTITCRASQGISSYLAWYQQKPGKAPKLLIYTASSLQSGVPSRFSGSGSGTDFTLTISSLQPEDFATYYCQQYDNLPITFGQGTRLEIKR
binds	10 to 30	> 30	Polypeptide No. 131 (scFv, V domains shown, scFv) VH: QVQLVQSGAEVKKPGASVKVSCKASGGTFSNYAINWVRQAPGQGLEWMGWINPNSGGTDSAQKFQGRVTMTRDTSTSTVYMELSSLRSEDTAVYYCARDSSLALSYGGNSEYYYGMDVWGQGTTVTVSS VL: DIQMTQSPSSLSASVGDRVTITCQASQDISDHLNWYQQKPGKAPKLLIYGASTLQSGVPSRFSGSGSGTDFTLTISSLQPEDFATYYCQQAYSFPWTFGQGTKLEIKR
binds	2 to 10	2 to 10	Polypeptide No. 117 (scFv, V domains shown, scFv) VH: EVQLLESGGGLVQPGGSLRLSCAASGFTFGDYPMSWVRQAPGKGLEWVAGISYDGLNEHYADSVKGRFTISRDNSKNTLYLQMNSLRAEDTAVYYCARDRDSGPSGFQHWGQGTLVTVSS VL: DIQMTQSPSSLSASVGDRVTITCRASQTIGTWLAWYQQKPGKAPKLLIYDASSLESGVPSRFSGSGSGTDFTLTISSLQPEDFATYYCQQSYSTPPTFGQGTKVEIKR
binds	10 to 30	10 to 30	Polypeptide No. 130 (scFv, V domains shown, scFv) VH: QVQLVQSGAEVKKPGASVKVSCKASGGTFSNYAISWVRQAPGQGLEWMAWMNPNSGNTGYAQKFQGRVTMTRDTSTSTVYMELSSLRSEDTAVYYCARDGFIGFGELFSAFDIWGQGTMVTVSS VL: DIQMTQSPSSLSASVGDRVTITCRASQSIGTWLAWYQQKPGKAPKLLIYGATRLLSGVPSRFSGSGSGTDFTLTISSLQPEDFATYYCQQSYSTPPTFGQGTKLEIKR
